The record followed here is patent US20110097262A1 (PIERRE FABRE MEDICAMENT, published 2011).

The target of this experiment is C-Met-Rluc (R. reniformis, UniProt P08581 25-1390; P27652 1-311). Briefly: cell-based or functional assay.
Sequence of C-Met-Rluc (P08581 other isoform, or with tags, fused parts or gaps): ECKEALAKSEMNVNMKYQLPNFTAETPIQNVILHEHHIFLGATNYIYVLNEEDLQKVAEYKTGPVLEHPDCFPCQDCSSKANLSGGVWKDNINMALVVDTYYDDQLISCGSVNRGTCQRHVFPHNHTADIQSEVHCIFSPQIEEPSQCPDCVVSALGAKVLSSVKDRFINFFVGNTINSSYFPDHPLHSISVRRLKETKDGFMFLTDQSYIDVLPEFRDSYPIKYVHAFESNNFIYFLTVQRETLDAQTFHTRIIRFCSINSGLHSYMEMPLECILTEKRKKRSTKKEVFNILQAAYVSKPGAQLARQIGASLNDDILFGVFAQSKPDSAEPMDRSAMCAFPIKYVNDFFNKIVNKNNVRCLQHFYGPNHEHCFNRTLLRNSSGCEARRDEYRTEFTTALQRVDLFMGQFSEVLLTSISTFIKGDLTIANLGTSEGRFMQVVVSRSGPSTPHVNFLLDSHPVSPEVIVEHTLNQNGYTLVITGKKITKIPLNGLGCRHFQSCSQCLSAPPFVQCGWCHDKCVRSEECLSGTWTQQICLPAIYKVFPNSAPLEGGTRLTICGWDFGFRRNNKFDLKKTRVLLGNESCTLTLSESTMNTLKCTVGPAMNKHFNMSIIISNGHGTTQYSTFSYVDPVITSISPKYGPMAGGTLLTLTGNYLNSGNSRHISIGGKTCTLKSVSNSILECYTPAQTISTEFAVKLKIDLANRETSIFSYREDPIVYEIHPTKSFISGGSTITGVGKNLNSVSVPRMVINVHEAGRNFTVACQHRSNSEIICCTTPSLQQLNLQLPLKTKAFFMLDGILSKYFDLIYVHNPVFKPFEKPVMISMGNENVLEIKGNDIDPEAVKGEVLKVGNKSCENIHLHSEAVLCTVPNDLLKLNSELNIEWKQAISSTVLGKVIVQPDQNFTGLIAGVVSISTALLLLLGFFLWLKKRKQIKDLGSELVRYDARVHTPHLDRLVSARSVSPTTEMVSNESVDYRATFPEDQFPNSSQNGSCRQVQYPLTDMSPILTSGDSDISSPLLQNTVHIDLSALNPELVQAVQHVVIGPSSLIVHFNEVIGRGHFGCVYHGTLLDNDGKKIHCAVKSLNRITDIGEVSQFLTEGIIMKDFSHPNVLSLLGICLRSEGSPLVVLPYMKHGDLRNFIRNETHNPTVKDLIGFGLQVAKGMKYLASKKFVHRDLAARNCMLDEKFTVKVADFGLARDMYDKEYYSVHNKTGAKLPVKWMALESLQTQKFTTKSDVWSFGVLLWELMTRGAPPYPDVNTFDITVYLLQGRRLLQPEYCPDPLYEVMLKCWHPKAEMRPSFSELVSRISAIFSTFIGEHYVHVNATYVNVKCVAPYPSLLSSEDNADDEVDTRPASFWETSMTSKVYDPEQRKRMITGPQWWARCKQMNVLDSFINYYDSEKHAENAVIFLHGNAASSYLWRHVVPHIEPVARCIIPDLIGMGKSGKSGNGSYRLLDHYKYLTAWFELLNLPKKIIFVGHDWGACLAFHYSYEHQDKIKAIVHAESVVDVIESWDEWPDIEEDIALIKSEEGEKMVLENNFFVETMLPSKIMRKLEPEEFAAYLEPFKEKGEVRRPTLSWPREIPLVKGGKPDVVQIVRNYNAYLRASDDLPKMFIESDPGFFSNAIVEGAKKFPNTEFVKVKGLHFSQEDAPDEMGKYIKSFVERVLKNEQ

B1: [224G11][TH7chim] (antibody, human IgG1)
heavy: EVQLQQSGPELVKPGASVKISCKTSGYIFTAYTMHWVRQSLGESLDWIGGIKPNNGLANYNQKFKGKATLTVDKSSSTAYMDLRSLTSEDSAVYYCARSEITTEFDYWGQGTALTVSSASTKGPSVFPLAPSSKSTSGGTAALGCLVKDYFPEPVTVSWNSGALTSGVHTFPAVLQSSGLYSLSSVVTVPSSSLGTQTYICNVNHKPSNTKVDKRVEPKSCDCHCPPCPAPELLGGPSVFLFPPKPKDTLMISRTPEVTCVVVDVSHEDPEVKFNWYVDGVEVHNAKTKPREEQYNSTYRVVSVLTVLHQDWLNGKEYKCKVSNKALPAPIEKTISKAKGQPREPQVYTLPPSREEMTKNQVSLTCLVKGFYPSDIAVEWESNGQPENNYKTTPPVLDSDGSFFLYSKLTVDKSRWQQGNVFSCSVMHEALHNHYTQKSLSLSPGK
light: DIVLTQSPASLAVSLGQRATISCRASESVDSYANSFMHWYQQKPGQPPKLLIYRASNLESGIPARFSGSGSRTDFTLTINPVEADDVATYYCQQSKEDPLTFGSGTKLEMKRTVAAPSVFIFPPSDEQLKSGTASVVCLLNNFYPREAKVQWKVDNALQSGNSQESVTEQDSKDSTYSLSSTLTLSKADYEKHKVYACEVTHQGLSSPVTKSFNRGEC
With B1, the “BRET signal by Mab alone, c-Met activation model” value (from here on “BRET signal by Mab alone”) is -6.9%.

B2: [224G11] [IgG2chim] (antibody)
heavy: EVQLQQSGPELVKPGASVKISCKTSGYIFTAYTMHWVRQSLGESLDWIGGIKPNNGLANYNQKFKGKATLTVDKSSSTAYMDLRSLTSEDSAVYYCARSEITTEFDYWGQGTALTVSSASTKGPSVFPLAPCSRSTSESTAALGCLVKDYFPEPVTVSWNSGALTSGVHTFPAVLQSSGLYSLSSVVTVPSSNFGTQTYTCNVDHKPSNTKVDKTVERKCCVECPPCPAPPVAGPSVFLFPPKPKDTLMISRTPEVTCVVVDVSHEDPEVQFNWYVDGVEVHNAKTKPREEQFNSTFRVVSVLTVVHQDWLNGKEYKCKVSNKGLPAPIEKTISKTKGQPREPQVYTLPPSREEMTKNQVSLTCLVKGFYPSDIAVEWESNGQPENNYKTTPPMLDSDGSFFLYSKLTVDKSRWQQGNVFSCSVMHEALHNHYTQKSLSLSPG
light: DIVLTQSPASLAVSLGQRATISCRASESVDSYANSFMHWYQQKPGQPPKLLIYRASNLESGIPARFSGSGSRTDFTLTINPVEADDVATYYCQQSKEDPLTFGSGTKLEMKRTVAAPSVFIFPPSDEQLKSGTASVVCLLNNFYPREAKVQWKVDNALQSGNSQESVTEQDSKDSTYSLSSTLTLSKADYEKHKVYACEVTHQGLSSPVTKSFNRGEC
On to B2, for which the “inhibition of HGF induced BRET signal, c-Met activation model” value is 66.3%.

B3: [224G11] [MHchim] (antibody, human IgG1, V domains shown)
VH: EVQLQQSGPELVKPGASVKISCKTSGYIFTAYTMHWVRQSLGESLDWIGGIKPNNGLANYNQKFKGKATLTVDKSSSTAYMDLRSLTSEDSAVYYCARSEITTEFDYWGQGTALTVSS
VL: DIVLTQSPASLAVSLGQRATISCRASESVDSYANSFMHWYQQKPGQPPKLLIYRASNLESGIPARFSGSGSRTDFTLTINPVEADDVATYYCQQSKEDPLTFGSGTKLEMKR
Turning to B3, the “BRET signal by Mab alone” value was found to be 5.1%.

B4: [224G11] [MUP9Hchim] (antibody, human IgG1, V domains shown)
VH: EVQLQQSGPELVKPGASVKISCKTSGYIFTAYTMHWVRQSLGESLDWIGGIKPNNGLANYNQKFKGKATLTVDKSSSTAYMDLRSLTSEDSAVYYCARSEITTEFDYWGQGTALTVSS
VL: DIVLTQSPASLAVSLGQRATISCRASESVDSYANSFMHWYQQKPGQPPKLLIYRASNLESGIPARFSGSGSRTDFTLTINPVEADDVATYYCQQSKEDPLTFGSGTKLEMKR
Take B4: the “BRET signal by Mab alone” value was 7.6%.

B5: [224G11] [MMCHchim] (antibody, human IgG1, V domains shown)
VH: EVQLQQSGPELVKPGASVKISCKTSGYIFTAYTMHWVRQSLGESLDWIGGIKPNNGLANYNQKFKGKATLTVDKSSSTAYMDLRSLTSEDSAVYYCARSEITTEFDYWGQGTALTVSS
VL: DIVLTQSPASLAVSLGQRATISCRASESVDSYANSFMHWYQQKPGQPPKLLIYRASNLESGIPARFSGSGSRTDFTLTINPVEADDVATYYCQQSKEDPLTFGSGTKLEMKR
With B5, the “BRET signal by Mab alone” value is -2%.
